Our source for the protein stability index values is the supplement of paper PMC10567573.

First the molecules themselves.
B1: SPOPL (parent)
chain: YTGRAPNLDKMADNLLAAADKYAL
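Further: lentivirally expressed fusions sorted by FACS into six bins by GFP to DsRed ratio, PSI derived from sequencing read proportions per bin multiplied by bin number.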

In this data set the parent is B1. In words: protein stability index of a GFP-peptide fusion (GPS, HEK-293T) (PSI 1-6); higher = more stable. The note with it: c terminus: a fixed tail appended.
For YTGRAPNLDKMADNLLAAADKYVL, the protein stability index is 1.54.

Take YTGRAPNLDKMADNLLAAADKYRL: the protein stability index turned out to be 1.91.

With YTGRAPNLDKMADNLLAAADKYPL, the protein stability index is 2.24.

Turning to YTGRAPNLDKMADNLLAAADKYQL, the protein stability index came to 2.4.

In the case of YTGRAPNLDKMADNLLAAADKYYL, the protein stability index was determined as 2.02.

With YTGRAPNLDKMADNLLAAADKYIL, the protein stability index worked out at 1.65.

Regarding YTGRAPNLDKMADNLLAAADKYDL, the protein stability index was determined as 2.45.

In the case of YTGRAPNLDKMADNLLAAADKYLL, the protein stability index came out at 1.67.

For YTGRAPNLDKMADNLLAAADKYGL, the protein stability index stood at 1.83.

On to YTGRAPNLDKMADNLLAAADKYKL, for which the protein stability index came out at 2.37.

Take YTGRAPNLDKMADNLLAAADKYSL: the protein stability index was found to be 1.97.

Consider YTGRAPNLDKMADNLLAAADKYHL, for which the protein stability index worked out at 1.78.

YTGRAPNLDKMADNLLAAADKYNL: the protein stability index came to 2.3.

Regarding YTGRAPNLDKMADNLLAAADKYTL, the protein stability index turned out to be 2.71.

With YTGRAPNLDKMADNLLAAADKYML, the protein stability index was determined as 2.18.

For YTGRAPNLDKMADNLLAAADKYWL, the protein stability index stood at 1.22.

Consider YTGRAPNLDKMADNLLAAADKYCL, for which the protein stability index came to 2.57.

For the variant YTGRAPNLDKMADNLLAAADKYFL, the protein stability index was found to be 1.81.

For YTGRAPNLDKMADNLLAAADKYEL, the protein stability index turned out to be 2.77.

As for YTGRAPNLDKMADNLLAAGDKYAL, the protein stability index stood at 2.23.

As for YTGRAPNLDKMADNLLAAHDKYAL, the protein stability index was 2.24.

As to YTGRAPNLDKMADNLLAARDKYAL, the protein stability index was 2.25.

As to YTGRAPNLDKMADNLLAAQDKYAL, the protein stability index is 2.77.

Regarding YTGRAPNLDKMADNLLAAWDKYAL, the protein stability index was determined as 1.37.

For the variant YTGRAPNLDKMADNLLAAEDKYAL, the protein stability index stood at 2.33.

As for YTGRAPNLDKMADNLLAAMDKYAL, the protein stability index is 2.22.

On to YTGRAPNLDKMADNLLAANDKYAL, for which the protein stability index came to 2.49.

Take YTGRAPNLDKMADNLLAAPDKYAL: the protein stability index came to 2.7.

Regarding YTGRAPNLDKMADNLLAAYDKYAL, the protein stability index is 2.11.

YTGRAPNLDKMADNLLAAIDKYAL: the protein stability index stood at 2.76.

YTGRAPNLDKMADNLLAATDKYAL: the protein stability index came to 1.99.

In the case of YTGRAPNLDKMADNLLAASDKYAL, the protein stability index turned out to be 1.65.

On to YTGRAPNLDKMADNLLAADDKYAL, for which the protein stability index was 2.76.

Regarding YTGRAPNLDKMADNLLAAKDKYAL, the protein stability index is 1.64.

For the variant YTGRAPNLDKMADNLLAAFDKYAL, the protein stability index was 1.5.

With YTGRAPNLDKMADNLYAAADKYAL, the protein stability index worked out at 2.06.

As for YTGRAPNLDKMADNLVAAADKYAL, the protein stability index worked out at 2.2.

On to YTGRAPNLDKMADNLLVAADKYAL, for which the protein stability index turned out to be 2.

As for YTGRAPNLDKMADNLLKAADKYAL, the protein stability index was 2.28.

As for YTGRAPNLDKMADNLLQAADKYAL, the protein stability index was 2.33.

Turning to YTGRAPNLDKMADNLLYAADKYAL, the protein stability index is 1.62.

On to YTGRAPNLDKMADNLLPAADKYAL, for which the protein stability index was 1.95.

As to YTGRAPNLDKMADNLLDAADKYAL, the protein stability index is 2.7.

On to YTGRAPNLDKMADNLLHAADKYAL, for which the protein stability index came to 2.08.

In the case of YTGRAPNLDKMADNLLNAADKYAL, the protein stability index amounted to 2.44.

With YTGRAPNLDKMADNLLIAADKYAL, the protein stability index was determined as 1.58.

With YTGRAPNLDKMADNLLSAADKYAL, the protein stability index turned out to be 2.27.

YTGRAPNLDKMADNLLRAADKYAL: the protein stability index was determined as 2.05.

For the variant YTGRAPNLDKMADNLLFAADKYAL, the protein stability index was found to be 2.04.

Regarding YTGRAPNLDKMADNLLEAADKYAL, the protein stability index turned out to be 2.98.

For the variant YTGRAPNLDKMADNLLTAADKYAL, the protein stability index was 2.55.

On to YTGRAPNLDKMADNLLLAADKYAL, for which the protein stability index was 2.34.

In the case of YTGRAPNLDKMADNLLGAADKYAL, the protein stability index worked out at 2.79.

For the variant YTGRAPNLDKMADNLLMAADKYAL, the protein stability index was 1.4.

YTGRAPNLDKMADNLLCAADKYAL: the protein stability index was determined as 2.28.

Consider YTGRAPNLDKMADNLLAFADKYAL, for which the protein stability index came out at 1.77.

For YTGRAPNLDKMADNLLAQADKYAL, the protein stability index was determined as 3.07.

Turning to YTGRAPNLDKMADNLLARADKYAL, the protein stability index came to 1.56.

In the case of YTGRAPNLDKMADNLLALADKYAL, the protein stability index came out at 2.7.

With YTGRAPNLDKMADNLLADADKYAL, the protein stability index was 2.62.

As for YTGRAPNLDKMADNLLASADKYAL, the protein stability index was 2.18.

On to YTGRAPNLDKMADNLLAMADKYAL, for which the protein stability index stood at 1.9.

As for YTGRAPNLDKMADNLLAKADKYAL, the protein stability index turned out to be 1.77.

In the case of YTGRAPNLDKMADNLLAEADKYAL, the protein stability index came out at 2.42.

As for YTGRAPNLDKMADNLLAGADKYAL, the protein stability index was 2.61.

For YTGRAPNLDKMADNLLAWADKYAL, the protein stability index stood at 2.62.

On to YTGRAPNLDKMADNLLAVADKYAL, for which the protein stability index was determined as 2.31.

Take YTGRAPNLDKMADNLLATADKYAL: the protein stability index was determined as 1.99.

For YTGRAPNLDKMADNLLAIADKYAL, the protein stability index was 1.42.

For the variant YTGRAPNLDKMADNLLANADKYAL, the protein stability index is 2.01.

For the variant YTGRAPNLDKMADNLLAYADKYAL, the protein stability index is 2.25.

For YTGRAPNLDKMADNLLACADKYAL, the protein stability index was found to be 1.51.

Take YTGRAPNLDKMADNLLAHADKYAL: the protein stability index turned out to be 1.96.

Consider YTGRAPNLDKMADNLLAPADKYAL, for which the protein stability index came out at 2.18.

On to YTGRAPNLDKMADNLLAAADKYAV, for which the protein stability index worked out at 2.

In the case of YTGRAPNLDKMADNLLAAADKYAN, the protein stability index is 2.66.

Take YTGRAPNLDKMADNLLAAADKYAA: the protein stability index was found to be 2.02.

For the variant YTGRAPNLDKMADNLLAAADKYAT, the protein stability index came out at 2.42.

On to YTGRAPNLDKMADNLLAAADKYAM, for which the protein stability index came to 2.33.

For YTGRAPNLDKMADNLLAAADKYAD, the protein stability index came to 3.62.

Take YTGRAPNLDKMADNLLAAADKYAW: the protein stability index came out at 1.86.

Regarding YTGRAPNLDKMADNLLAAADKYAS, the protein stability index amounted to 2.73.

On to YTGRAPNLDKMADNLLAAADKYAK, for which the protein stability index stood at 2.55.

Turning to YTGRAPNLDKMADNLLAAADKYAF, the protein stability index amounted to 2.01.

For YTGRAPNLDKMADNLLAAADKYAQ, the protein stability index amounted to 2.16.

As for YTGRAPNLDKMADNLLAAADKYAE, the protein stability index worked out at 3.11.

On to YTGRAPNLDKMADNLLAAADKYAY, for which the protein stability index came to 1.89.

Turning to YTGRAPNLDKMADNLLAAADKYAP, the protein stability index was 2.17.

In the case of YTGRAPNLDKMADNLLAAADKYAR, the protein stability index stood at 2.24.

With YTGRAPNLDKMADNLLAAADKYAH, the protein stability index came out at 2.49.

YTGRAPNLDKMADNLLAAADKYAG: the protein stability index is 2.78.

On to YTGRAPNLDKMADNLLAAADKYAC, for which the protein stability index stood at 2.37.

Regarding YTGRAPNLDKMADNLLAAADKYAI, the protein stability index was 2.02.

With YTGRAPNLDKMADNLLAAAMKYAL, the protein stability index is 2.22.
